± gives the standard deviation of the averaged measurements.
Test system: ATP
Experiment: switch fluorescence ratio, 500 uM ATP over buffer (Cy3 cluster intensity, sum of 5 cycles each) (fold (ratio)); higher = stronger signal-on switching upon ATP binding; sequences stand for … in TCGTCGGCAGCGTCAGATGTGTATAAGAGACAGTTTTTTTTTTTTTTTTTTTTTTTTT…TC
Conditions: aptamer strand: ATP DNA aptamer (quencher-CACCTGGGGGAGTATTGCGGAGGAAGG + anchor), 100 nM annealed; ATP concentration: 500 uM
In short: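 Values give the fluorescence ratio for each switch-domain sequence, averaged from per-cluster ratios of summed target-cycle to summed buffer-cycle Cy3 intensity. The Cy3-labelled switching-strand clusters sat on a modified Illumina MiSeq flow-cell, were annealed to 100 nM quencher-labelled ATP aptamer, and were imaged in selection buffer, then after 15 min with 500 uM ATP at 22 °C. Five cycles ran with NaOH stripping and re-annealing between them, and clusters outside 100-1000 RFU were excluded.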
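Note: ATP exposure 15 min at 22 °C before imaging.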

Sequence: TGGGACGCCT
- switch fluorescence ratio: 1.06 ± 0.14

Sequence: TGGGACGGGT
- switch fluorescence ratio: 0.968 ± 0.052

Sequence: TGGGACGGTC
- switch fluorescence ratio: 1.1 ± 0.051

Sequence: TGGGACTGGG
- switch fluorescence ratio: 1.01 ± 0.06

Sequence: TGGGAGAAGT
- switch fluorescence ratio: 0.983 ± 0.011

Sequence: TGGGAGCAGG
- switch fluorescence ratio: 1.05 ± 0.079

Sequence: TGGGAGGG
- switch fluorescence ratio: 1.04 ± 0.013

Sequence: TGGGAGGGGG
- switch fluorescence ratio: 0.991 ± 0.036

Sequence: TGGGAGTTCA
- switch fluorescence ratio: 0.971 ± 0.01

Sequence: TGGGATCCGC
- switch fluorescence ratio: 1.03 ± 0.056

Sequence: TGGGATGGAA
- switch fluorescence ratio: 1.004 ± 0.0031

Sequence: TGGGATGGAG
- switch fluorescence ratio: 0.976 ± 0.037

Sequence: TGGGATGTTG
- switch fluorescence ratio: 1 ± 0.052

Sequence: TGGGATTAAG
- switch fluorescence ratio: 0.987 ± 0.034

Sequence: TGGGCAAAAA
- switch fluorescence ratio: 1.01 ± 0.011

Sequence: TGGGCAAAGT
- switch fluorescence ratio: 0.9863 ± 0.0074

Sequence: TGGGCAAGGA
- switch fluorescence ratio: 1.02 ± 0.028

Sequence: TGGGCACGGT
- switch fluorescence ratio: 0.969 ± 0.049

Sequence: TGGGCAGATG
- switch fluorescence ratio: 0.989 ± 0.016

Sequence: TGGGCCGAGG
- switch fluorescence ratio: 1.12 ± 0.063

Sequence: TGGGCGAACG
- switch fluorescence ratio: 0.9626 ± 0.0022

Sequence: TGGGCGAGAA
- switch fluorescence ratio: 0.9685 ± 0.0052

Sequence: TGGGCGGTGC
- switch fluorescence ratio: 1.93 ± 1.2

Sequence: TGGGCTAAAT
- switch fluorescence ratio: 0.987 ± 0.027

Sequence: TGGGGAAAAG
- switch fluorescence ratio: 1.09 ± 0.31

Sequence: TGGGGAAAGA
- switch fluorescence ratio: 1.01 ± 0.034

Sequence: TGGGGAAATG
- switch fluorescence ratio: 0.997 ± 0.029

Sequence: TGGGGAAATT
- switch fluorescence ratio: 1.01 ± 0.022

Sequence: TGGGGAAGGG
- switch fluorescence ratio: 0.989 ± 0.039

Sequence: TGGGGAAGTT
- switch fluorescence ratio: 1 ± 0.034

Sequence: TGGGGAATTC
- switch fluorescence ratio: 1.53 ± 0.86

Sequence: TGGGGACCCT
- switch fluorescence ratio: 0.991 ± 0.014

Sequence: TGGGGACCGG
- switch fluorescence ratio: 1.01 ± 0.027

Sequence: TGGGGACCTT
- switch fluorescence ratio: 1 ± 0.0032

Sequence: TGGGGACGGT
- switch fluorescence ratio: 1.01 ± 0.012

Sequence: TGGGGAGATA
- switch fluorescence ratio: 1.01 ± 0.018

Sequence: TGGGGAGGGT
- switch fluorescence ratio: 1.01 ± 0.035

Sequence: TGGGGATAAC
- switch fluorescence ratio: 0.969 ± 0.034

Sequence: TGGGGCAAAC
- switch fluorescence ratio: 1.87 ± 0.81

Sequence: TGGGGCAGGT
- switch fluorescence ratio: 0.997 ± 0.051

Sequence: TGGGGCATTT
- switch fluorescence ratio: 1 ± 0.036

Sequence: TGGGGCCCCA
- switch fluorescence ratio: 1.01 ± 0.046

Sequence: TGGGGCCCGA
- switch fluorescence ratio: 1.02 ± 0.037

Sequence: TGGGGCCTAA
- switch fluorescence ratio: 1.02 ± 0.013

Sequence: TGGGGCCTTA
- switch fluorescence ratio: 0.952 ± 0.018

Sequence: TGGGGCGACT
- switch fluorescence ratio: 0.991 ± 0.021

Sequence: TGGGGCGGAG
- switch fluorescence ratio: 0.979 ± 0.031

Sequence: TGGGGCGGCG
- switch fluorescence ratio: 0.976 ± 0.03

Sequence: TGGGGCGTGC
- switch fluorescence ratio: 1.06 ± 0.065

Sequence: TGGGGCGTTG
- switch fluorescence ratio: 1.01 ± 0.019

Sequence: TGGGGGAACT
- switch fluorescence ratio: 0.996 ± 0.019

Sequence: TGGGGGAAGA
- switch fluorescence ratio: 1.03 ± 0.069

Sequence: TGGGGGAAGT
- switch fluorescence ratio: 1.01 ± 0.029

Sequence: TGGGGGAATA
- switch fluorescence ratio: 0.999 ± 0.03

Sequence: TGGGGGACAG
- switch fluorescence ratio: 1 ± 0.029

Sequence: TGGGGGACGG
- switch fluorescence ratio: 1 ± 0.035

Sequence: TGGGGGAGA
- switch fluorescence ratio: 1.04 ± 0.017

Sequence: TGGGGGAGTT
- switch fluorescence ratio: 0.994 ± 0.026

Sequence: TGGGGGATTA
- switch fluorescence ratio: 0.999 ± 0.021

Sequence: TGGGGGCAAA
- switch fluorescence ratio: 0.987 ± 0.03

Sequence: TGGGGGCAAG
- switch fluorescence ratio: 0.987 ± 0.018

Sequence: TGGGGGCCGG
- switch fluorescence ratio: 1.02 ± 0.039

Sequence: TGGGGGCGAC
- switch fluorescence ratio: 1 ± 0.057

Sequence: TGGGGGCGTG
- switch fluorescence ratio: 0.9502 ± 0.00056

Sequence: TGGGGGGAC
- switch fluorescence ratio: 1.01 ± 0.061

Sequence: TGGGGGGACC
- switch fluorescence ratio: 1.03 ± 0.05

Sequence: TGGGGGGCAA
- switch fluorescence ratio: 1.56 ± 1.1

Sequence: TGGGGGGTCT
- switch fluorescence ratio: 1.02 ± 0.057

Sequence: TGGGGGGTTG
- switch fluorescence ratio: 1.02 ± 0.049

Sequence: TGGGGGTCGA
- switch fluorescence ratio: 1.01 ± 0.053

Sequence: TGGGGGTTAA
- switch fluorescence ratio: 0.981 ± 0.025

Sequence: TGGGGGTTCC
- switch fluorescence ratio: 1.01 ± 0.025

Sequence: TGGGGGTTGG
- switch fluorescence ratio: 1 ± 0.024

Sequence: TGGGGGTTTT
- switch fluorescence ratio: 1 ± 0.032

Sequence: TGGGGTAAAC
- switch fluorescence ratio: 0.997 ± 0.024

Sequence: TGGGGTAAGA
- switch fluorescence ratio: 1.02 ± 0.015

Sequence: TGGGGTAAGT
- switch fluorescence ratio: 0.993 ± 0.032

Sequence: TGGGGTATGG
- switch fluorescence ratio: 0.978 ± 0.033

Sequence: TGGGGTATTG
- switch fluorescence ratio: 0.974 ± 0.012

Sequence: TGGGGTCGGC
- switch fluorescence ratio: 0.987 ± 0.021

Sequence: TGGGGTCTGA
- switch fluorescence ratio: 0.974 ± 0.017

Sequence: TGGGGTGAAC
- switch fluorescence ratio: 1 ± 0.025

Sequence: TGGGGTGCCA
- switch fluorescence ratio: 0.9795 ± 0.0071

Sequence: TGGGGTGCTC
- switch fluorescence ratio: 0.998 ± 0.056

Sequence: TGGGGTGGGT
- switch fluorescence ratio: 1 ± 0.039

Sequence: TGGGGTTA
- switch fluorescence ratio: 0.98448 ± 0.00037

Sequence: TGGGGTTGAC
- switch fluorescence ratio: 0.9697 ± 0.0034

Sequence: TGGGGTTGGG
- switch fluorescence ratio: 1 ± 0.044

Sequence: TGGGGTTGTG
- switch fluorescence ratio: 0.987 ± 0.031

Sequence: TGGGGTTTTT
- switch fluorescence ratio: 0.984 ± 0.026

Sequence: TGGGTAAAGC
- switch fluorescence ratio: 1.03 ± 0.017

Sequence: TGGGTAACGG
- switch fluorescence ratio: 0.999 ± 0.0039

Sequence: TGGGTAATAT
- switch fluorescence ratio: 1.032 ± 0.0077

Sequence: TGGGTACACG
- switch fluorescence ratio: 1 ± 0.0019

Sequence: TGGGTAGGCT
- switch fluorescence ratio: 0.996 ± 0.035

Sequence: TGGGTATAAT
- switch fluorescence ratio: 1.014 ± 0.0096

Sequence: TGGGTATAT
- switch fluorescence ratio: 1.01 ± 0.011

Sequence: TGGGTATGTG
- switch fluorescence ratio: 0.972 ± 0.038

Sequence: TGGGTATTAG
- switch fluorescence ratio: 0.992 ± 0.054

Sequence: TGGGTATTGT
- switch fluorescence ratio: 1.02 ± 0.047

Sequence: TGGGTCAAAG
- switch fluorescence ratio: 0.9881 ± 0.0088

Sequence: TGGGTCCATA
- switch fluorescence ratio: 0.95611 ± 0.00081

Sequence: TGGGTCGGCT
- switch fluorescence ratio: 1.06 ± 0.1

Sequence: TGGGTCGGGA
- switch fluorescence ratio: 0.982 ± 0.031

Sequence: TGGGTCTGAT
- switch fluorescence ratio: 0.9865 ± 0.0031

Sequence: TGGGTGAATT
- switch fluorescence ratio: 0.98 ± 0.017

Sequence: TGGGTGCTGA
- switch fluorescence ratio: 0.954 ± 0.052

Sequence: TGGGTGGACA
- switch fluorescence ratio: 1.02 ± 0.08

Sequence: TGGGTGGGAC
- switch fluorescence ratio: 1.04 ± 0.036

Sequence: TGGGTGGGCT
- switch fluorescence ratio: 0.975 ± 0.011

Sequence: TGGGTGGGGA
- switch fluorescence ratio: 1 ± 0.036

Sequence: TGGGTGGTGC
- switch fluorescence ratio: 0.965 ± 0.011

Sequence: TGGGTGGTTG
- switch fluorescence ratio: 1.02 ± 0.035

Sequence: TGGGTGTAGG
- switch fluorescence ratio: 1.007 ± 0.004

Sequence: TGGGTTAATT
- switch fluorescence ratio: 0.989 ± 0.026

Sequence: TGGGTTACGG
- switch fluorescence ratio: 0.983 ± 0.036

Sequence: TGGGTTAGCC
- switch fluorescence ratio: 1.01 ± 0.038

Sequence: TGGGTTCACT
- switch fluorescence ratio: 1.02 ± 0.017

Sequence: TGGGTTCGGA
- switch fluorescence ratio: 0.985 ± 0.023

Sequence: TGGGTTGACG
- switch fluorescence ratio: 0.998 ± 0.037

Sequence: TGGGTTGAGG
- switch fluorescence ratio: 0.997 ± 0.016

Sequence: TGGGTTGCTG
- switch fluorescence ratio: 1.05 ± 0.066

Sequence: TGGGTTTGTC
- switch fluorescence ratio: 0.96 ± 0.049

Sequence: TGGGTTTTAT
- switch fluorescence ratio: 0.9954 ± 0.0094

Sequence: TGGGTTTTGA
- switch fluorescence ratio: 1.01 ± 0.033

Sequence: TGGGTTTTGG
- switch fluorescence ratio: 0.997 ± 0.052

Sequence: TGGGTTTTTT
- switch fluorescence ratio: 1.01 ± 0.048

Sequence: TGGTAAAACT
- switch fluorescence ratio: 1.06 ± 0.034

Sequence: TGGTAAATCG
- switch fluorescence ratio: 1.03 ± 0.038

Sequence: TGGTAAATGT
- switch fluorescence ratio: 0.97 ± 0.013

Sequence: TGGTAACGCG
- switch fluorescence ratio: 1 ± 0.014

Sequence: TGGTAAGGGG
- switch fluorescence ratio: 1.12 ± 0.25

Sequence: TGGTAATAGG
- switch fluorescence ratio: 1.0108 ± 0.00095

Sequence: TGGTACACGT
- switch fluorescence ratio: 0.989 ± 0.014

Sequence: TGGTACATCA
- switch fluorescence ratio: 0.973 ± 0.054

Sequence: TGGTACATTA
- switch fluorescence ratio: 1.34 ± 0.46

Sequence: TGGTACCACT
- switch fluorescence ratio: 0.996 ± 0.014

Sequence: TGGTACGGGA
- switch fluorescence ratio: 0.999 ± 0.043

Sequence: TGGTACTTGT
- switch fluorescence ratio: 1.01 ± 0.027

Sequence: TGGTAGAGTG
- switch fluorescence ratio: 0.987 ± 0.0027

Sequence: TGGTAGGGTA
- switch fluorescence ratio: 1.03 ± 0.034

Sequence: TGGTAGGGTT
- switch fluorescence ratio: 0.969 ± 0.028

Sequence: TGGTAGGTA
- switch fluorescence ratio: 0.987 ± 0.013

Sequence: TGGTAGTGCT
- switch fluorescence ratio: 1.01 ± 0.018

Sequence: TGGTAGTTTG
- switch fluorescence ratio: 0.9951 ± 0.0039

Sequence: TGGTATAACG
- switch fluorescence ratio: 0.964 ± 0.025

Sequence: TGGTATGGTT
- switch fluorescence ratio: 0.996 ± 0.011

Sequence: TGGTATTTAT
- switch fluorescence ratio: 1.012 ± 0.0072

Sequence: TGGTATTTTA
- switch fluorescence ratio: 0.982 ± 0.028

Sequence: TGGTCAAATC
- switch fluorescence ratio: 1 ± 0.051

Sequence: TGGTCAGAGT
- switch fluorescence ratio: 1.01 ± 0.023

Sequence: TGGTCCTAGT
- switch fluorescence ratio: 0.975 ± 0.017

Sequence: TGGTCGCAGC
- switch fluorescence ratio: 1.01 ± 0.018

Sequence: TGGTCTCTTT
- switch fluorescence ratio: 1 ± 0.039

Sequence: TGGTCTTAGA
- switch fluorescence ratio: 1.01 ± 0.012

Sequence: TGGTCTTGTA
- switch fluorescence ratio: 1.04 ± 0.021

Sequence: TGGTGAAAAG
- switch fluorescence ratio: 0.97 ± 0.059

Reference: the supplement of paper PMC10126150
